According to article PMC9372627:

Experiments:
Trio_(1284-2638) (human) = Trio_(1284-2638) (human) (UniProt O75962)

RhoA GEF activity (FRET-based nucleotide exchange assay with MANT-GTP), enhancement by 200 nM Gαq·GDP·AlF4^- (TrioC (human)): 2.5 fold
RhoA GEF activity (FRET-based nucleotide exchange assay with MANT-GTP), enhancement by 200 nM Gαq·GDP·AlF4^- (Trio_(1284-2638) (human)): 2.5 fold
Substance: Gαq·GDP·AlF4^- (from UniProt P21279 1-359) (natural protein)
